± gives the uncertainty stated by the source.
Test: amyloid nucleation score (Sup35N fusion, yeast selection) (log enrichment); library NNK1; higher = more nucleation; inactive = no reads after selection
Outline: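 Psi-negative yeast expressed Sup35N fused to peptides of 20 random codons. They were induced 24 hours with 100 μM copper sulfate, grown 7 days at 30°C without adenine and uracil, and their plasmid inserts from input and output were Illumina-sequenced. The nucleation score is the DiMSum log enrichment of output over input reads, centred on the mode score of non-aggregating sequences. Sequences with under 100 input reads were excluded.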

In the case of QMKVISLVRHE, the amyloid nucleation score is reported as “inactive”.
In the case of GLLSRNLVLRGLNSGNWPFG, the amyloid nucleation score is reported as “inactive”.
With NARFWVRCIDVHFGVKAGDG the amyloid nucleation score was “inactive”.
With SVARCASPMQSLSLRGRPEG the amyloid nucleation score was “inactive”.
For TFSGFYGVYYNQILVGSLIQ, the amyloid nucleation score was “inactive”.
For YLVSTSRWGYLVLTLMWKEG, the amyloid nucleation score was “inactive”.
In the case of VSTSLGHLVDWGKSM, the amyloid nucleation score is reported as “inactive”.

Compared with LYMICGVYCLDSGIRTMRTF, TFYEHMVCGRHQSQAVWLVK is lower in amyloid nucleation score: 5.51 ± 0.067 for the first, 0.169 ± 0.6 for the second.

DRMLHKAI and GRFFRRLRECNLPHSNIHAY are within error of each other in amyloid nucleation score: -0.624 ± 1.5 for the first, 0.343 ± 0.42 for the second.

Compared with SRTTAVSYLGNGFVI, DACCYDECVS is higher in amyloid nucleation score: -0.573 ± 0.42 for the first, 0.782 ± 0.25 for the second.

YPLINTLDMHRLCRIYCVNE and AYTCHYQGGGLVNLVDVGYG are within error of each other in amyloid nucleation score: -0.514 ± 0.54 for the first, 0.353 ± 0.69 for the second.

RYCQVP and LIYVLYLY are within error of each other in amyloid nucleation score: 0.348 ± 0.43 for the first, 0.501 ± 0.55 for the second.

HSCVPICNEYSAADRSYFRY and LHAYTLSYGLLVLSARSHEL are within error of each other in amyloid nucleation score: 0.343 ± 0.97 for the first, -0.01 ± 0.67 for the second.

Compared with RYSQTKDLKVLLQHFFIYKF, GVDKEINLFMYRPYRFVSGE is higher in amyloid nucleation score: -1.23 ± 1.7 for the first, 1.1 ± 0.24 for the second.

ITAFKRAKRSAGCW and CVFRSYQWWSSHLYFVNVCN are within error of each other in amyloid nucleation score: -0.034 ± 0.25 for the first, 0.667 ± 0.68 for the second.

KYKRSYTLDHVFYMSSPGVR and AGRIETIEIGSSCLSVCGGY are within error of each other in amyloid nucleation score: 0.824 ± 0.73 for the first, 0.328 ± 0.58 for the second.

YYCTQRLNSHSVLMSLADRW and FSRPWWRSWHSFFSHDEKTI are within error of each other in amyloid nucleation score: 0.035 ± 0.76 for the first, 0.282 ± 0.69 for the second.

Compared with MMPSECMEFLMCLWFGSGSD, LRVNIPVTQSSTVIHY is higher in amyloid nucleation score: -0.722 ± 0.55 for the first, 0.91 ± 0.39 for the second.

RGILNRVTLILDLRVHSSSD and STAAVHCRMRTRFQLRRLRD are within error of each other in amyloid nucleation score: 0.504 ± 0.32 for the first, -0.086 ± 0.35 for the second.

SFKGYVSWVGSPHRAVG and SYLQGELTDDSMTSFFKGM are within error of each other in amyloid nucleation score: 0.425 ± 0.86 for the first, -1.3 ± 1.4 for the second.

PCTGLRHGLHEFMSRYPDRD and LMRRAAVFFAGSRAGSRCLT are within error of each other in amyloid nucleation score: 0.215 ± 0.97 for the first, -0.675 ± 0.4 for the second.

ITYSTYLMSCGRSMYQGWKV and LLRCPYLNFGASMYLIRFCS are within error of each other in amyloid nucleation score: 0.372 ± 0.23 for the first, 0.404 ± 0.53 for the second.

First: AAVGALGKSRSL
Second: FMDTAMTSFGSLSW
The amyloid nucleation score of the first is higher: 1.17 ± 0.73 for the first, -0.317 ± 0.55 for the second.

VPLGSDSNHNANVTCYFASA and VFYDVGGVSD are within error of each other in amyloid nucleation score: -0.078 ± 0.37 for the first, 0.03 ± 0.48 for the second.

Compared with VYFRCTWAISMFFYMSNAGW, YVVCRTFSVPAYSLRLQLRR is lower in amyloid nucleation score: 1.35 ± 0.21 for the first, 0.353 ± 0.26 for the second.

TCSSLRSLLWSCVVRALLWT and LCLGCGYGEETI are within error of each other in amyloid nucleation score: -0.528 ± 1.2 for the first, 0.069 ± 0.37 for the second.

Going from VSQVVCGMSYFGDCAIRQES to SGDCVL, the amyloid nucleation score rises from 0.153 ± 0.5 to 1.43 ± 0.26.

First: GSALPSIWSWERFRSLLRNL
Second: LVCDQLLIITLKCDERHQVT
The amyloid nucleation score of the first is lower: -0.221 ± 0.45 for the first, 7.474 ± 0.074 for the second.

AFLCESFSLVWYWLLWEWRW and DHIEMFGKVGYYHNMILW are within error of each other in amyloid nucleation score: -0.126 ± 0.77 for the first, 0.762 ± 0.37 for the second.

DQVISNCRLNMGV and GITGSWINFRNCLTR are within error of each other in amyloid nucleation score: -0.369 ± 0.56 for the first, 0.774 ± 0.6 for the second.

Compared with RLWSRPSS, LFHLPSVYIWFYAT is higher in amyloid nucleation score: 1.14 ± 0.79 for the first, 6.723 ± 0.053 for the second.

IWLSQYDHGNCVTYSQANYM and FTDLFPEDRIWVPDYAGQRR are within error of each other in amyloid nucleation score: 0.412 ± 0.85 for the first, 0.255 ± 1.4 for the second.

Compared with ISDCRFILMYSYGHLCAGVR, GTMVSLKTGFKDTSRLLNWS is lower in amyloid nucleation score: 0.513 ± 0.45 for the first, -0.748 ± 0.41 for the second.

RIKYAWFCVFGTWNRIRVRI and SVLNNLAAPDKARLRPCNWV are within error of each other in amyloid nucleation score: 1.1 ± 0.68 for the first, 0.379 ± 0.54 for the second.

First: SWVNRPYWSPGDTTVWYGC
Second: GMRVRNRFVVSDSSYPPASH
The amyloid nucleation score of the first is higher: 1.06 ± 0.52 for the first, -0.024 ± 0.26 for the second.

First: RCLVFTLKRV
Second: WGIVVNQYVVRSVRLKLQDR
The amyloid nucleation score of the first is lower: 0.358 ± 0.61 for the first, 2.8 ± 0.13 for the second.

Compared with GGTNAGRCMYGGRDI, RYFVYLSVFDYFINHLDIRW is lower in amyloid nucleation score: 0.754 ± 0.7 for the first, -0.79 ± 0.42 for the second.

SSNSGYSWSFTAWMGLGMRR and KLILK are within error of each other in amyloid nucleation score: -0.037 ± 1.7 for the first, -0.378 ± 0.51 for the second.

Going from NRRMFV to CPMEKSGVELDV, the amyloid nucleation score rises from -1.13 ± 0.48 to 0.094 ± 0.41.

Going from LYSCMRVVATATVSGGLVIE to VNMNELRNNRLSSVVFLVVG, the amyloid nucleation score rises from -0.843 ± 0.69 to 2.09 ± 0.21.

GISSCWLRRFHVAKRARPSG and RRILGRYRC are within error of each other in amyloid nucleation score: -1.02 ± 2.7 for the first, -0.129 ± 1.1 for the second.

Compared with SWNNLIVVRSKVDGCAVSAG, NYIGYLYLFDFCEHDLCRCF is higher in amyloid nucleation score: 0.504 ± 0.73 for the first, 6.62 ± 0.074 for the second.

CLSRKSWFWHGRWESVSCHP and SDTRYGLFVNWRFWDRGSGW are within error of each other in amyloid nucleation score: -0.018 ± 0.53 for the first, 0.238 ± 0.34 for the second.

NYYFAKSLLHI and LYRRGTRPPG are within error of each other in amyloid nucleation score: 1.27 ± 0.79 for the first, -1.28 ± 2.4 for the second.

WCARNISRCPSNISGNLGMK and SSVPHFAGSVVASDPPLYRL are within error of each other in amyloid nucleation score: -0.461 ± 0.69 for the first, 0.949 ± 0.81 for the second.

YTYDLYVTSVLNVSRESSHC and HISMRDFFSHLGRRVVGIMY are within error of each other in amyloid nucleation score: -0.343 ± 1.4 for the first, -1.1 ± 0.45 for the second.

KKAIPACHVVSFTMRLSFLD and YGFKLGMFTGSIAMYAGHLI are within error of each other in amyloid nucleation score: 0.225 ± 0.63 for the first, -0.198 ± 0.31 for the second.

YDWAVSAS and ARAGWRSYYRGHLCSESANE are within error of each other in amyloid nucleation score: -0.364 ± 0.61 for the first, 0.273 ± 0.65 for the second.

IANCQAGWGCRQA and TTVANTSAVFCEAVCKGMQK are within error of each other in amyloid nucleation score: 0.315 ± 0.32 for the first, 0.078 ± 0.99 for the second.

First: SQKEFRKTAIKTHLMFRIHL
Second: YLKINTTYGCDI
The amyloid nucleation score of the first is lower: -0.258 ± 0.29 for the first, 1.93 ± 0.34 for the second.

First: FCISLFSHWFALW
Second: NSVAGSYGVWQWGDSRSLPP
The amyloid nucleation score of the first is higher: 5.72 ± 0.067 for the first, 0.262 ± 0.43 for the second.

First: YWSFGGWVAQRVCMESVFVK
Second: TGRRIVGYDCLNRSCMYICV
The amyloid nucleation score of the first is lower: -2.27 ± 1.6 for the first, -0.321 ± 0.25 for the second.

VMVFGSMPVDDLLHFWLECY and SRYQEYRFQMCMMECMRRLA are within error of each other in amyloid nucleation score: -0.102 ± 0.42 for the first, 0.115 ± 1 for the second.

PVKGGVMGF and PHFLGQFYSDVPCDCGLCWY are within error of each other in amyloid nucleation score: -0.35 ± 1.4 for the first, 0.193 ± 0.9 for the second.

ESPHYFTLTCV and MLIRVISDVLPG are within error of each other in amyloid nucleation score: -0.036 ± 0.74 for the first, 0.224 ± 0.5 for the second.

Compared with NFKVYPSGCKEECAYVLLSL, TQSSNPTLGGFQFHLWVNIF is lower in amyloid nucleation score: 3.87 ± 0.079 for the first, -1.85 ± 0.95 for the second.

Compared with LTTYFHFMSMTEWAWRRRSK, ESGYVLESSVQVENKFIFTT is lower in amyloid nucleation score: 0.538 ± 0.29 for the first, -2.27 ± 2.4 for the second.

First: VDGSSCFGCAGCTTRRFTSG
Second: CLYWFLKEHFC
The amyloid nucleation score of the first is lower: -0.253 ± 0.43 for the first, 1.06 ± 0.78 for the second.

Going from MNVFVSRNYVYLKYEFRSLA to LCLVFVNLVLQRYGIASWYT, the amyloid nucleation score falls from 6.642 ± 0.051 to 0.531 ± 0.3.

GGLAGTTLKLRICF and THCFFYHLGKFYMSKITLAS are within error of each other in amyloid nucleation score: -1.03 ± 1.9 for the first, -1.48 ± 2.7 for the second.

PTETVMMRRIFGSRGPWYAV and SHKGNPCRKIC are within error of each other in amyloid nucleation score: 0.286 ± 1.4 for the first, -0.392 ± 0.38 for the second.

HCHSPATKPALTLMMY and KFVYEGSGHQVILYVTLMGY are within error of each other in amyloid nucleation score: -0.738 ± 0.93 for the first, -1.59 ± 0.84 for the second.

TGTHDVVVAVGYR and TRWCEWRYRSPDRYASLTGF are within error of each other in amyloid nucleation score: -0.658 ± 0.54 for the first, -0.06 ± 0.43 for the second.

First: DFRWWYLFC
Second: VVVGDSPNGNEEDDWSSC
The amyloid nucleation score of the first is higher: 1.11 ± 0.26 for the first, -2.03 ± 2.7 for the second.

FVQWFASSCCIRPRRYFVSR and PSYHGYLGLSNPVRYRMCV are within error of each other in amyloid nucleation score: -1.42 ± 1.6 for the first, 0.197 ± 0.28 for the second.

LRELSVCWPT and STSATPYFSFRKIFMASAAS are within error of each other in amyloid nucleation score: -0.153 ± 0.44 for the first, -0.029 ± 0.57 for the second.

Reference: the supplement of paper PMC12042874
